Data reported in the DeepSol protein solubility set.

test: soluble on expression in E. coli; label from the status in PepcDB or PDB records

Soluble on expression in E. coli, soluble:
GPGSMPERMTAALAARLVASPLKYVLLDIDGVIWCGGHVIDRVPETLQYLRGQGKQIRFLSNNASFSREQLMQSLKAKGIEGVTVEECYNSAYTAALRLRQMLGKADVPGEEPLVHGNVFVIGEQGLHDELQQVLAPGFITYGVELHDAVRAGGYDTDALGSAWRVPCLPPPQKRLVVCNGKACRMVQAGTNSAEKISLSDLNAAAVVVGLDKHFNIVKLAYGSLVLQGPPKDLREESYTPPLFVATNEDPQLPVGRDGTMIPGAGSMVSALCTAVGKRPDAVCGKPHKDMANILFAAEGVTNPREECIMIGDRLTTDVAFGNAAGCQSMLVLSGAEGLADVEEAEKQGRTALVPKYVAESLACFLPL
MSILDGFKEVGESNNGKLTMTVMLESVRFSKNVSAVLGFPKYVKVLVNNDEKKFAIQKCNDKDEYAIRFATKKPGEASAVTLRNVDLLVATQKFFSFPELDDPTKIAFYALDGEYYSDEQVIVFNVEGAKNGTVGKRGPKAGSHRKTSQAKLEHHHHHH
DPSKGRWVEGITSEGYHYYYDLISGASQWEKPEGFQGDLKKTAVKTVWVEGLSEDGFTYYYNTETGESRWEKPDD
MTDFSVWETAPFGATVDHILQRYHNVHRAQFEELVPLAQKVAQVHADTFPAEIAELLAYMQNELLMHMMKEERMLFPMINQGVGRGAAMPIGVMMHEHEEHDRAIARLKELTDNFQPPEGACGSWTRLYALAKEMVEDLNDHIHLENDILFARVLDS
SRRRPLSCDAASQAGSNYPRCWNCGGPWGPGREDRFFCPQCRALQAPDPTRDYFSLMDCNRSFRVDTAKLQHRYQQLQRLVHPDFFSQRSQTEKDFSEKHSTLVNDAYKTLLAPLSRGLYLLKLHGIEIPERTDYEMDRQFLIEIMEINEKLAEAESEAAMKEIESIVKAKQKEFTDNVSSAFEQDDFEEAKEILTKMRYFSNIEEKIKLKKIPL

Soluble on expression in E. coli, not soluble:
MIFEVPIDHFPASSQQVSKTREHKPLRLSTVSLHSKEVNAAVAPLSPSVRRSQFNFSSEVTKSALPKVRASIPPLKRALTSPALPVQHLNLNLVRKGSNPSSQTSRNNSVTDLLKSELFKMPSRLLSTAVSLHQLA
MELFKEISQEESNKDSKENDNINEEIDIEQLKDKVKDLELQLEYEIKQHNVEIAEREETIKILETRIQELEHYKNDITEKDEAIINMSEKLLILSNKYDILVKESKLQEEELKHFKNKKKYRNDKTNEYILGLRNQNDEIKKEHELLNEKYAQLVKEYAILQNSCKVLNEQLENNQKNMELLIKEKSNNLDEKTAIKILNIGSKELIHKRVHNKNVDELSNLKLELEYKDMILNKLMRKQVSEGKTIKVEYTNNENKFENEKKLGEMYQKYLDSVCDNDNLKKEINKLHNKINDMKVEEEEHLKTISILRDYINKMYKEDVNINQFDDLINNILKDNTSLNEELSKQKRKNMADIYYFTKELQIVKKDKFKIIEKFDSKKVTNIPHLYEPLNLTLSKENNKREISDDDDDNKGPKGDLNFLKKNSDINCSESNIKKPLKTNDLVHIYMQDYMNNVQNKA
MGSDKIHHHHHHMDHQIEDFLEHWLPLADDAWVLAVITQIQGSAYRKPGAMMLFHEFGQGVGMLSGGCLEADLRRHAQKAMQTKQVTCVTYDASDESDASYRLGCGGIVDIMLIPLLKENHDLGLIELVQAFRHGRSGFYQLPLVKAGTDARQYQAAFYPEALTPFPASDFVRTGVFTQEAGESLIIPLRPRFHLGIFGGGIDAKPIAAMADTLGWQVTVFDGRTAYARAADFPHAHIVKLTAGELTANHIAQLDCAVVMNHNLGLDAVALKVIQAHPLAYVALLGPAHRRDKVLGMAGLSTESFSGVFSAPAGLALGGELPSAVALSILAQCHGVLHGATLKHLDEIMR
MSLAGILGFPVAPFNTQGTLEEEALFQNIEFLLNEGLEAIFIACGSGEFQSLSQKEYEQMVEVAVSAAGGKVPVYTGVGGNLSTALDWAQLSEKKGADGYLILPPYLVHGEQEGLYQYAKTIIESTDLNAILYQRDNAVLSVEQIKRLTECEQLVGVKDGVGNMDLNINLVYTIGDRLGWLNGMPMAEVTMPAYLPIGFHSYSSAISNYIPHISRMFYDALKNGNDELVKELYRHVILPINDIRKQRKGYAVSLIKAGMEIMGLNVRNTARPPVGPVEKDHYQQLEAILKQPADRFPKKEGHHHHHH
